For 53 sequences, Kd results are on record in the Immune Epitope Database (IEDB).

One assay addresses HLA-B*08:01. As to the kind of experiment: IEDB peptide-MHC binding, purified MHC/competitive/radioactivity; filed as Kd, often an IC50 or EC50 that approximates it; ≥ and ≤ were set here for values at or beyond the usual limits of such assays.
The next assay deals with HLA-A*30:02. The assay is described as above.
Another assay concerns the target HLA-A*24:02. Described as above.
A further assay concerns the target HLA-A*23:01. Described as above.
The target in the next assay is HLA-A*26:01. The assay is described as above. Conditions: source organism: Dengue virus 3 Singapore/8120/1995.
Assay [1] deals with HLA-A*01:01. Described as above.
A further assay concerns the target HLA-A*02:01. As to the kind of experiment: IEDB peptide-MHC binding, purified MHC/direct/fluorescence; filed as Kd, often an IC50 or EC50 that approximates it; ≥ and ≤ were set here for values at or beyond the usual limits of such assays.
Another assay concerns the target HLA-A*69:01. The description is as above.
The target of the next assay is HLA-A*02:02. Kind of assay: IEDB peptide-MHC binding, purified MHC/competitive/radioactivity; filed as Kd, often an IC50 or EC50 that approximates it; ≥ and ≤ were set here for values at or beyond the usual limits of such assays.
The target of a further assay is HLA-A*02:03. The assay is described as above.
The target in another assay is HLA-A*02:06. The description is as above.
For assay [2], the target named is HLA-A*01:01. As to the kind of experiment: IEDB peptide-MHC binding, purified MHC/direct/fluorescence; filed as Kd, often an IC50 or EC50 that approximates it; ≥ and ≤ were set here for values at or beyond the usual limits of such assays. Conditions: source organism: Treponema pallidum.
Where [3] appears, read: source organism: Vaccinia virus WR.
Setting [4] is: source organism: Dengue virus 1 Brazil/97-11/1997.
[5] abbreviates: source organism: Dengue virus 3 Martinique/1243/1999.
Where [6] appears, read: source organism: Dengue virus 4 Philippines/H241/1956.
Setting [7] is: source organism: Dengue virus 2 Jamaica/1409/1983.
Where [8] appears, read: source organism: Salmonella enterica.
Where [9] appears, read: source organism: Brucella melitensis.
Setting [10] is: source organism: Francisella tularensis subsp. tularensis FSC198.
Where [11] appears, read: source organism: Camelpox virus M-96.
Where [12] appears, read: source organism: Treponema pallidum.
Where [13] appears, read: source organism: SARS coronavirus Tor2.
The mark [14] stands for this setting: source organism: Escherichia coli.

Usually Kd stands for the constant that tells how readily two partners part at equilibrium. In the case of SVKINFEFV, in the assay with HLA-B*08:01 (setting [3]), the Kd came to 105 nM. On to RGDLPVWLSY, for which, in the assay with HLA-A*30:02 (setting [4]), the Kd was determined as 4100 nM. As for RFANALLAL, the Kd with HLA-A*24:02 (setting [5]) is 689 nM; in the assay with HLA-A*23:01 (setting [5]), 142 nM. On to MRKTDWLPM, for which the Kd with HLA-B*08:01 (setting [5]) amounted to 35 nM. With MWKQITNEL, the Kd in the assay with HLA-A*23:01 (setting [6]) came to 144 nM. For RYLEFEALGF, the Kd with HLA-A*24:02 (setting [5]) amounted to 38.1 nM; with HLA-A*23:01 (setting [5]), 4.68 nM.

Take SPKRLATAI: the Kd with HLA-B*08:01 (setting [5]) amounted to 14.1 nM. For RYLRDQQLL, the Kd with HLA-A*24:02 (source organism: HIV-1 M:B_ARV2/SF2) was 30 nM. Regarding VWEVEDYGF, the Kd with HLA-A*23:01 (setting [5]) worked out at 296 nM. Turning to EWITDFVGKT, the Kd in the assay with HLA-A*26:01 was not below 28200 nM. In the case of YKKLKFRFI, in the assay with HLA-B*08:01 (setting [3]), the Kd was 196 nM. In the case of VTEKDSPVNI, the Kd with HLA-A*01:01 [1] (setting [7]) was not below 40900 nM. As to GTVLVQVKY, the Kd in the assay with HLA-A*01:01 [1] (setting [4]) turned out to be 1240 nM; with HLA-A*30:02 (setting [4]), 5110 nM.

As to MFLITENKI, the Kd in the assay with HLA-A*23:01 (source organism: Dengue virus 1 Nauru/West Pac/1974) was found to be 162 nM. Turning to HLKHHKQCV, in the assay with HLA-B*08:01 (setting [3]), the Kd was 4.51 nM. For QIDNFSLGV, the Kd with HLA-A*01:01 [1] (setting [7]) was 661 nM.

In the case of ALKRRLRTL, in the assay with HLA-B*08:01 (setting [6]), the Kd was 1.89 nM.

As for RTPQDNQLTY, the Kd in the assay with HLA-A*30:02 (setting [7]) was 1.02 nM.

For the sequence GWNDWQQVPF, the Kd was found to be 1740 nM with HLA-A*24:02 (setting [4]) and 1400 nM with HLA-A*23:01 (setting [4]). Turning to RRFRRPMSL, the Kd with HLA-B*08:01 (setting [3]) was 111 nM.

For the sequence AIDPRRIVA, the Kd in the assay with HLA-A*02:01 (setting [8]) and with HLA-A*69:01 (setting [8]) was not below 20000 nM each time. As to HFQRALIFIL, in the assay with HLA-B*08:01 (setting [7]), the Kd was found to be 1730 nM. For NLTSTWVTY, the Kd in the assay with HLA-A*01:01 [1] (setting [5]) is 1710 nM. Take EVDSFSLGI: in the assay with HLA-A*01:01 [1] (setting [4]), the Kd is 7390 nM. With TLGRNKRPRL, the equilibrium dissociation constant (Kd) in the assay with HLA-B*08:01 (source organism: Dengue virus 3 Sri Lanka/1266/2000) came out at 395 nM.

On to SYKVASAGI, for which the Kd in the assay with HLA-A*24:02 (setting [6]) amounted to 105 nM. Take GIQRTVFFVL: the Kd with HLA-B*08:01 (setting [6]) was determined as 6610 nM. Turning to ETDLNQWMV, the figures for the Kd with HLA-A*02:01 (setting [9]) and with HLA-A*69:01 (setting [9]) were 163 nM and 0.8 nM, respectively. In the case of SILEYAKSI, the Kd in the assay with HLA-A*02:01 (setting [10]) is 102 nM; with HLA-A*69:01 (setting [10]), 107 nM. As for LAIPPTAGIL, the Kd with HLA-B*08:01 (setting [4]) turned out to be 4250 nM. In the case of VYPMSIPATL, the Kd with HLA-A*24:02 (setting [4]) was 78.1 nM; in the assay with HLA-A*23:01 (setting [4]), 6.39 nM. On to LLSKNTFYL, for which the Kd is 15.5 nM with HLA-A*02:01 (setting [11]) and 536 nM with HLA-A*69:01 (setting [11]).

On to VDRKGKVVGL, for which the Kd in the assay with HLA-B*08:01 (setting [7]) stood at 6320 nM.

Take IKRKLRTLIL: in the assay with HLA-B*08:01 (setting [4]), the Kd is 5800 nM. Regarding TMGVLCLAIL, the Kd with HLA-B*08:01 (setting [5]) was found to be 6430 nM.

With WTMKIGIGIL, in the assay with HLA-B*08:01 (setting [4]), the Kd was found to be 342 nM. On to AYQHALNEL, for which the Kd with HLA-A*24:02 (setting [6]) came out at 199 nM; with HLA-A*23:01 (setting [6]) it was 2340 nM.

For VMKIGIGVLL, the Kd with HLA-B*08:01 (setting [5]) was determined as 516 nM. WFVERNMVI: in the assay with HLA-A*23:01 (setting [5]), the Kd came out at 340 nM.

Turning to NYKERMVTF, the Kd came to 19.4 nM with HLA-A*24:02 (setting [6]) and 101 nM in the assay with HLA-A*23:01 (setting [6]). As for GLLKKFEFL, the Kd with HLA-B*08:01 (setting [3]) turned out to be 46.8 nM. For the sequence LTEIASLPT, the Kd in the assay with HLA-A*01:01 [1] (setting [6]) was 1470 nM.

As for TLNTLITLIL, the Kd with HLA-A*02:02 (setting [3]) is 150 nM; with HLA-A*02:03 (setting [3]), 7.09 nM; in the assay with HLA-A*02:06 (setting [3]), 826 nM.

On to DINVIGLIVI, for which the Kd with HLA-A*02:02 (setting [3]) turned out to be 7150 nM; with HLA-A*02:03 (setting [3]), 2810 nM; in the assay with HLA-A*02:06 (setting [3]), 2790 nM. Take IVDYVTAYG: the Kd with HLA-A*01:01 [2] was determined as 2520 nM; in the assay with HLA-A*02:01 (setting [12]) it was 17300 nM; in the assay with HLA-A*69:01 (setting [12]) it was 1630 nM. As for YLSGTDDEVI, the results for the Kd in the assay with HLA-A*02:02 (setting [3]), in the assay with HLA-A*02:03 (setting [3]) and with HLA-A*02:06 (setting [3]) were 6.26 nM, 211 nM and 947 nM, respectively. On to TVGMLIYSM, for which the Kd turned out to be 490 nM in the assay with HLA-A*02:02 (setting [3]), 6090 nM with HLA-A*02:03 (setting [3]) and 9170 nM with HLA-A*02:06 (setting [3]).

Consider AISAVYFKA, for which the Kd in the assay with HLA-A*02:02 (setting [3]) was determined as 3.65 nM; with HLA-A*02:03 (setting [3]) it was 525 nM; in the assay with HLA-A*02:06 (setting [3]), 149 nM. LAEAIFKLTY: the Kd with HLA-A*01:01 [1] (setting [7]) was 1510 nM. PVETLFGSYI: the values for the Kd with HLA-A*02:02 (setting [3]), with HLA-A*02:03 (setting [3]) and with HLA-A*02:06 (setting [3]) were 13700 nM, 11800 nM and not below 69800 nM, respectively. Consider SALMTLDDLA, for which the Kd with HLA-A*02:02 (setting [3]) was found to be 210 nM; in the assay with HLA-A*02:03 (setting [3]) it was 2320 nM; with HLA-A*02:06 (setting [3]), 193 nM.

For the sequence FLLPSLATV, the Kd turned out to be 0.134 nM with HLA-A*02:02 (setting [13]), 0.204 nM in the assay with HLA-A*02:03 (setting [13]) and 0.411 nM with HLA-A*02:06 (setting [13]). Regarding GLLASAPGI, the equilibrium dissociation constant (Kd) in the assay with HLA-A*02:01 (setting [14]) amounted to 6.3 nM; with HLA-A*69:01 (setting [14]), 974 nM.
